The target of the assay is TnsC-BP-NLS-VP64 (plasmid pSL2783, p6A_hCO_Vch_TnsC_BP-NLS-VP64) (Vibrio cholerae). The assay can be described thus: cell-based or functional assay.

“TnsABf (plasmid pSL2669, pcDNA3.1_hCO_Vch_TnsA_BP-NLS_TnsB)” had a level of transcriptional activation (mCherry MFI relative to the non-targeting control, HEK293T reporter assay) of 2 fold.

Source of the values: patent publication US20240209399A1.
